Measurements reported in patent US20260263521A1 (AIMED BIO, published 2026).

T1: human CD200R1 expressed on cells (Jurkat-CD200R1, U937-CD200R1, HH cells) (human, UniProt Q8TD46 25-348)
T1 construct: whole, on cells; also called HH (CRL-2105); cell surface-expressed CD200R1
T1 sequence (looked up): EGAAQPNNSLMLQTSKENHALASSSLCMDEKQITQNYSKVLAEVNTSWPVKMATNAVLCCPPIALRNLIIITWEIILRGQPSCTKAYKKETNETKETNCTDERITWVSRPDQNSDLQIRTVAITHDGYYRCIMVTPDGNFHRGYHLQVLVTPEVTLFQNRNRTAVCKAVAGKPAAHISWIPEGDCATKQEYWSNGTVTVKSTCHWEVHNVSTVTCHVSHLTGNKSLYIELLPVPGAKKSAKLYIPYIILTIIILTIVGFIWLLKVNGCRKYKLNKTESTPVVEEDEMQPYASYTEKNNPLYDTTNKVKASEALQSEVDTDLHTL

T2: mouse CD200R1 protein (R&D systems, 2554-CD) (mouse, UniProt Q9ES57 26-238, limits assumed)
T2 construct: Bought; construct not described
T2 sequence (looked up): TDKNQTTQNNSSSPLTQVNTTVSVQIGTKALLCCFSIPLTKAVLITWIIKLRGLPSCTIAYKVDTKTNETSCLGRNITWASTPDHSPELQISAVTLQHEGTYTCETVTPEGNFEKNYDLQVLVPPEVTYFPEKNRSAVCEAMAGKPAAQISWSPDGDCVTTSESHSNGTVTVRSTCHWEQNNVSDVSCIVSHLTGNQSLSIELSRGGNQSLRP

T3: human CD200RLa (Sino Biological, 11620-H08H) recombinant protein (human, UniProt Q6Q8B3 24-239)
T3 construct: Bought; construct not described
T3 sequence (looked up): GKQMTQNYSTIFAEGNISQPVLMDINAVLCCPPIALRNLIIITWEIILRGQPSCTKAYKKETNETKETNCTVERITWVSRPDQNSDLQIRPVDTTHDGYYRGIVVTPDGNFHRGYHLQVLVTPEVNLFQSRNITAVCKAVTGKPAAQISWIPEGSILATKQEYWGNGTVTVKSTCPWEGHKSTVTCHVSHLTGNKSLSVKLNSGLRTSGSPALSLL


Columns and labels:
[1] = biological target: T1, human CD200R1 expressed on cells …; assay: flow cytometry, HH cells; drawn table, row EC50
[2] = biological target: T1, human CD200R1 expressed on cells …; assay: flow cytometry, HH cells; drawn table
[3] = biological target: T2, mouse CD200R1 protein (R&D systems, …); assay: ELISA, plate-bound mouse CD200R1 (2 ug/mL), IgG 0.0192-300 nM, OD 450 nm; panel 'mouse CD200R1'
Protocol: 96-well plates were coated with human CD200R1 (R&D systems, 3414-CD) and mouse CD200R1 protein (R&D systems, 2554-CD) at a concentration of 2 μg/mL at 4° C. for 16 hours and then were blocked with 3% skim milk.
Color was developed with a TMB substrate solution (Thermo Scientific, 34029, 1-Step™ TMB-ELISA Ultra Substrate Solution). The color reaction was stopped with stop solution (Invitrogen, SS04, ELISA Stop Solution). The absorbance was measured at an optical density of 450 nm.

[4] = biological target: T3, human CD200RLa (Sino Biological, …); assay: ELISA, plate-bound human CD200RLa (2 ug/mL), antibody 0.0192-300 nM, O.D 450 nm; panel 'recombinant human CD200RLa'
Protocol: 96-well plates were coated with human CD200RLa (Sino Biological, 11620-H08H) and monkey CD200RLa (Sino Biological, 11576-C02H) recombinant proteins at a concentration of 2 μg/mL at 4° C. for 16 hours, and blocked with 3% skim milk for 1 hour. […] Color was developed with a TMB substrate solution (Thermo Scientific, 34029, 1-Step™ Ultra TMB-ELISA Substrate Solution). The color reaction was stopped with stop solution (Invitrogen, SS04, ELISA Stop Solution).

| Binder | EC50 [1] [nM] | Geo mean (%) at 0.05 nM [2] [%] | Geo mean (%) at 0.19 nM [2] [%] | Geo mean (%) at 0.78 nM [2] [%] | Geo mean (%) at 3.125 nM [2] [%] | Geo mean (%) at 12.5 nM [2] [%] | Geo mean (%) at 50 nM [2] [%] | Geo mean (%) at 200 nM [2] [%] | Geo mean (%) at 800 nM [2] [%] | binding result [3] | binding result [4] |
| --- | --- | --- | --- | --- | --- | --- | --- | --- | --- | --- | --- |
| P001018 scFv mutant H3-Y102K (scFv) scFv: QVQLVQSGAEVKKPGASVKVSCKASGYTFTSYVMHWVRQAPGQGLEWMGYINPYNDDTNYNEKFKGRVTMTRDTSTSTVYMELSSLRSEDTAVYYCAREDYYGSRWGKWGQGTLVTVSSGGGGSGGGGSGGGGSDIVLTQSPASLAVSPGQRATITCRASKSVSTSGYSYMHWYQQKPGQPPKLLIYLASNLESGVPARFSGSGSGTDFTLTINPVEANDTANYYCQHSRELLTFGQGTKVEIK | 9.79 | 2.1 | 6.1 | 17.1 | 35.3 | 67 | 85.7 | 104 | 120 | – | – |
| P001018 scFv mutant H3-Y102T (scFv) scFv: QVQLVQSGAEVKKPGASVKVSCKASGYTFTSYVMHWVRQAPGQGLEWMGYINPYNDDTNYNEKFKGRVTMTRDTSTSTVYMELSSLRSEDTAVYYCAREDYYGSRWGTWGQGTLVTVSSGGGGSGGGGSGGGGSDIVLTQSPASLAVSPGQRATITCRASKSVSTSGYSYMHWYQQKPGQPPKLLIYLASNLESGVPARFSGSGSGTDFTLTINPVEANDTANYYCQHSRELLTFGQGTKVEIK | 9.43 | 2 | 5.8 | 15.5 | 33.2 | 69.7 | 91.6 | 107 | 121 | – | – |
| P001018 scFv mutant L3-L94H (scFv) scFv: QVQLVQSGAEVKKPGASVKVSCKASGYTFTSYVMHWVRQAPGQGLEWMGYINPYNDDTNYNEKFKGRVTMTRDTSTSTVYMELSSLRSEDTAVYYCAREDYYGSRWGYWGQGTLVTVSSGGGGSGGGGSGGGGSDIVLTQSPASLAVSPGQRATITCRASKSVSTSGYSYMHWYQQKPGQPPKLLIYLASNLESGVPARFSGSGSGTDFTLTINPVEANDTANYYCQHSREHLTFGQGTKVEIK | 9.4 | 2.2 | 5.6 | 18.5 | 35.3 | 59.1 | 75.2 | 96.7 | 105 | – | – |
| P001018 scFv mutant L3-L94S (scFv) scFv: QVQLVQSGAEVKKPGASVKVSCKASGYTFTSYVMHWVRQAPGQGLEWMGYINPYNDDTNYNEKFKGRVTMTRDTSTSTVYMELSSLRSEDTAVYYCAREDYYGSRWGYWGQGTLVTVSSGGGGSGGGGSGGGGSDIVLTQSPASLAVSPGQRATITCRASKSVSTSGYSYMHWYQQKPGQPPKLLIYLASNLESGVPARFSGSGSGTDFTLTINPVEANDTANYYCQHSRESLTFGQGTKVEIK | 9.52 | 1.8 | 5.9 | 17.3 | 35.5 | 62 | 76.6 | 98.7 | 110 | – | – |
| P001018 scFv mutant L3-L95D (scFv) scFv: QVQLVQSGAEVKKPGASVKVSCKASGYTFTSYVMHWVRQAPGQGLEWMGYINPYNDDTNYNEKFKGRVTMTRDTSTSTVYMELSSLRSEDTAVYYCAREDYYGSRWGYWGQGTLVTVSSGGGGSGGGGSGGGGSDIVLTQSPASLAVSPGQRATITCRASKSVSTSGYSYMHWYQQKPGQPPKLLIYLASNLESGVPARFSGSGSGTDFTLTINPVEANDTANYYCQHSRELDTFGQGTKVEIK | 13.1 | 2 | 5.6 | 16.4 | 35.6 | 73.8 | 95.3 | 119 | 145 | – | – |
| P001018 scFv mutant L3-R92H (scFv) scFv: QVQLVQSGAEVKKPGASVKVSCKASGYTFTSYVMHWVRQAPGQGLEWMGYINPYNDDTNYNEKFKGRVTMTRDTSTSTVYMELSSLRSEDTAVYYCAREDYYGSRWGYWGQGTLVTVSSGGGGSGGGGSGGGGSDIVLTQSPASLAVSPGQRATITCRASKSVSTSGYSYMHWYQQKPGQPPKLLIYLASNLESGVPARFSGSGSGTDFTLTINPVEANDTANYYCQHSHELLTFGQGTKVEIK | 6.14 | 3.3 | 8.7 | 19.8 | 43.8 | 84.1 | 100 | – | – | – | – |
| P001018 scFv mutant L3-R92S (scFv) scFv: QVQLVQSGAEVKKPGASVKVSCKASGYTFTSYVMHWVRQAPGQGLEWMGYINPYNDDTNYNEKFKGRVTMTRDTSTSTVYMELSSLRSEDTAVYYCAREDYYGSRWGYWGQGTLVTVSSGGGGSGGGGSGGGGSDIVLTQSPASLAVSPGQRATITCRASKSVSTSGYSYMHWYQQKPGQPPKLLIYLASNLESGVPARFSGSGSGTDFTLTINPVEANDTANYYCQHSSELLTFGQGTKVEIK | 7.76 | 1.7 | 4.5 | 12 | 33.9 | 73.2 | 90.1 | 108 | 116 | – | – |
| P001018 scFv mutant L3-T96R (scFv) scFv: QVQLVQSGAEVKKPGASVKVSCKASGYTFTSYVMHWVRQAPGQGLEWMGYINPYNDDTNYNEKFKGRVTMTRDTSTSTVYMELSSLRSEDTAVYYCAREDYYGSRWGYWGQGTLVTVSSGGGGSGGGGSGGGGSDIVLTQSPASLAVSPGQRATITCRASKSVSTSGYSYMHWYQQKPGQPPKLLIYLASNLESGVPARFSGSGSGTDFTLTINPVEANDTANYYCQHSRELLRFGQGTKVEIK | 7.26 | 2.7 | 7.5 | 19.4 | 40.2 | 79.5 | 91.1 | 116 | 123 | – | – |
| P001013 (IgG) (antibody, V domains shown) VH: EVQLLESGGGLVQPGGSLRLSCAASGFTFSGYDMSWVRQAPGKGLEWVSGIPPGDGSTYYADSVKGRFTISRDNSKNTLYLQMNSLRAEDTAVYYCAKHLVSDHPPSQYSDDGMDVWGQGTLVTVSS VL: QSVLTQPPSASGTPGQRVTISCSGSSSNIGNNDVNWYQQLPGTAPKLLIYYNSQRPSGVPDRFSGSKSGTSASLAISGLRSEDEADYYCGSWDYSLNGYVFGGGTKLTVL | – | – | – | – | – | – | – | – | – | no binding (tested: 300 nM) | no binding (tested: 300 nM) |
| P001017 (chimeric OX108) (antibody, V domains shown, also called QX108; murine anti-CD200R1 antibody OX108) VH: EVKLQQSGPELVKPGASVKMSCKASGYTFTSYVMHWVKQKPGQGLEWIGYINPYNDDTNYNEKFKGKATLTSDKSSSTAYMELSSLTSEDSAVYYCAREDYYGSRWGYWGQGTTLTVSS VL: DIVLTQSPASLAVSLGQRATISCRASKSVSTSGYSYMHWYQQKPGQPPKLLIYLASNLESGVPARFSGSGSGTDFTLNIHPVEEEDAATYYCQHSRELLTFGAGTKLELK | – | – | – | – | – | – | – | – | – | – | no binding (tested: 300 nM) |
